# Experimental data reported in patent publication US10808017B2, “Ubiquitin variants and uses therof as 53BP1 inhibitors” (The Governing Council of the University of Toronto, priority 2016, dated 2020).
# Several values for one entry are separate records, joined by “and”; a condition that tells them apart may be missing. Identical values can stand only once.
# Tests used:
# [1] = molecular target: T1, 53BP1 recruitment to DSB sites in U2OS cells (Homo sapiens, UniProt Q12888); assay: Ionizing radiation focus formation, 53BP1 (immunofluorescence); assay type: cell-based; details: transfected U2OS cells, 10 Gy X-rays, 1 h post-irradiation
# T1 construct: endogenous in cells; host or cells: U2OS
# Procedure: (§1) FIG. 3. The i53 protein inhibits 53BP1. FIG. 3A-B, U2OS cells were transfected with vectors expressing i53, its 53BP1-binding deficient mutant (DM) or an empty vector (EV) control. Cells were then X-irradiated with a 10 Gy dose and processed for immunofluorescence with the indicated antibodies 1 h post-irradiation (IR). DAPI staining (not shown) was used to delineate the outline (dashed lines) of the cell nuclei. The region in the magnified inset is indicated with a square. Quantitation of the experiment is shown in panel (a) and data is indicated as the mean±s.e.m (N=3), whereas in (b) representative micrographs are shown. Arrowheads indicate Flag-positive cells. FIG. 3C, Parental or 53BP1ΔU2OS cells transfected with vectors expressing i53, the DM mutant or an empty vector (EV) control were irradiated (10 Gy) 1 h before being processed for immunofluorescence. Cell cycle stage was assessed by Cyclin A staining. The data is presented as the mean±s.e.m.; N=3. FIG. 3D, Immunoprecipitation (IP) of Flag-tagged proteins from extracts prepared from 293T cells transfected with vectors expressing Flag-i53 or the i53-DM mutant. Proteins were separated by SDS-PAGE and immunoblotted (IB) for Flag and 53BP1. […]
# [2] = system: BRCA1 focus formation in U2OS cells; assay: Ionizing radiation focus formation, BRCA1 (immunofluorescence); assay type: cell-based; details: 10 Gy
# Procedure: as §1
# [3] = molecular target: T2, TP53BP1 (Homo sapiens, UniProt Q12888); assay: Flag IP-MS of i53/i53-DM baits: prey TP53BP1; assay type: binding
# T2 construct: endogenous in cells; host or cells: HEK293 Flp-In/T-REx
# Procedure: (§2) Following immunoprecipitation of Flag-tagged i53 and i-53-DM from HEK293 Flp-In/T-REx cells, peptides were identified using LC-MS/MS. Proteins were digested in solution with trypsin (Sigma, T7575-1KT) and dried to completeness. For LC-MS/MS analysis, peptides were reconstituted in 5% formic acid and loaded onto a 12-15 cm fused silica column with pulled tip packed in-house with 3.5 μm Zorbax C18 (Agilent Technologies, Calif., USA).
# (§3) i53 and i53-DM precipitates were analyzed using an LTQ (Thermo Scientific) coupled to an Agilent 1100 Series HPLC (Agilent Technologies). Peptides were eluted from the column using a 90 min period cycle with a linear gradient from 0% to 40% ACN in 0.1% formic acid. Tandem MS spectra were acquired in a data-dependent mode for the top 5 (LTQ) most abundant ions using collision-induced dissociation. Acquired spectra were searched against the human Refseq_V53 database using Mascot (Matrix Science).
# (§4) 293T Flp-In/T-Rex cell lines were generated that expressed Flag-tagged i53 or i53-DM under the control of a tetracycline-inducible promoter as previously described. Nine IP-MS experiments were analyzed (3 biological replicate IPs each for control i53- and i53-DM expressing cell lines). The interacting proteins were identified by MASCOT to identify high-confidence interactors for i53. […]
# [4] = molecular target: T3, CFL1 (Homo sapiens, UniProt P23528); assay: Flag IP-MS of i53/i53-DM baits: prey CFL1; assay type: binding; details: 293T Flp-In/T-Rex extracts, LC-MS/MS, one column per replicate IP
# T3 construct: endogenous in cells; host or cells: HEK293 Flp-In/T-REx
# Procedure: as §2, §3, §4
# [5] = molecular target: T4, GSPT1 (Homo sapiens, UniProt P15170); assay: Flag IP-MS of i53/i53-DM baits: prey GSPT1; assay type: binding; details: 293T Flp-In/T-Rex extracts, LC-MS/MS, one column per replicate IP
# T4 construct: endogenous in cells; host or cells: HEK293 Flp-In/T-REx
# Procedure: as §2, §3, §4
# [6] = molecular target: T5, TXNDC12 (Homo sapiens, UniProt O95881); assay: Flag IP-MS of i53/i53-DM baits: prey TXNDC12; assay type: binding; details: 293T Flp-In/T-Rex extracts, LC-MS/MS, one column per replicate IP
# T5 construct: endogenous in cells; host or cells: HEK293 Flp-In/T-REx
# Procedure: as §2, §3, §4
# [7] = molecular target: T6, RPL10 (Homo sapiens, UniProt P27635); assay: Flag IP-MS of i53/i53-DM baits: prey RPL10; assay type: binding; details: 293T Flp-In/T-Rex extracts, LC-MS/MS, one column per replicate IP
# T6 construct: endogenous in cells; host or cells: HEK293 Flp-In/T-REx
# Procedure: as §2, §3, §4
# [8] = molecular target: T7, FMR1 (Homo sapiens, UniProt Q06787); assay: Flag IP-MS of i53/i53-DM baits: prey FMR1; assay type: binding; details: 293T Flp-In/T-Rex extracts, LC-MS/MS, one column per replicate IP
# T7 construct: endogenous in cells; host or cells: HEK293 Flp-In/T-REx cells
# Procedure: as §2, §3, §4
# [9] = molecular target: T8, RPL8 (Homo sapiens, UniProt P62917); assay: Flag IP-MS of i53/i53-DM baits: prey RPL8; assay type: binding; details: 293T Flp-In/T-Rex extracts, LC-MS/MS, one column per replicate IP
# T8 construct: Following immunoprecipitation of Flag-tagged i53 and i-53-DM from HEK293 Flp-In/T-REx cells, peptides were identified using LC-MS/MS; endogenous in cells; host or cells: HEK293 Flp-In/T-REx cells
# Procedure: as §2, §3, §4
# [10] = molecular target: T9, RPS29 (Homo sapiens, UniProt P62273); assay: Flag IP-MS of i53/i53-DM baits: prey RPS29; assay type: binding; details: 293T Flp-In/T-Rex extracts, LC-MS/MS, one column per replicate IP
# T9 construct: Following immunoprecipitation of Flag-tagged i53 and i-53-DM from HEK293 Flp-In/T-REx cells, peptides were identified using LC-MS/MS; endogenous in cells; host or cells: HEK293 Flp-In/T-REx cells
# Procedure: as §2, §3, §4
# [11] = molecular target: T10, MGA (Homo sapiens, UniProt Q8IWI9); assay: Flag IP-MS of i53/i53-DM baits: prey MGA; assay type: binding; details: 293T Flp-In/T-Rex extracts, LC-MS/MS, one column per replicate IP
# T10 construct: endogenous in cells; host or cells: HEK293 Flp-In/T-REx cells
# Procedure: as §2, §3, §4
# [12] = molecular target: T11, RERGL (Homo sapiens, UniProt Q9H628); assay: Flag IP-MS of i53/i53-DM baits: prey RERGL; assay type: binding; details: 293T Flp-In/T-Rex extracts, LC-MS/MS, one column per replicate IP
# T11 construct: endogenous in cells; host or cells: HEK293 Flp-In/T-REx cells
# T11 sequence (Q9H628 1-204): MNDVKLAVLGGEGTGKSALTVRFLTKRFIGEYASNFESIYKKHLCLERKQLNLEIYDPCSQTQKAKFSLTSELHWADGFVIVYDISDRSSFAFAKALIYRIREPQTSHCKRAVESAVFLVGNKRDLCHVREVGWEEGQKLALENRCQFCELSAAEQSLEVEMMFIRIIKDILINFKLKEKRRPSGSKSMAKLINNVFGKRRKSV
# Procedure: as §2, §3, §4
# [13] = system: RAB34; assay: Flag IP-MS of i53/i53-DM baits: prey RAB34; assay type: binding, human; details: 293T Flp-In/T-Rex extracts, LC-MS/MS, one column per replicate IP
# Procedure: as §2, §3, §4
# [14] = molecular target: T12, DLEC1 (Homo sapiens, UniProt Q9Y238); assay: Flag IP-MS of i53/i53-DM baits: prey DLEC1; assay type: binding; details: 293T Flp-In/T-Rex extracts, LC-MS/MS, one column per replicate IP
# T12 construct: endogenous in cells; host or cells: HEK293 Flp-In/T-REx cells
# Procedure: as §2, §3, §4
# T2 sequence (Q12888 whole entry): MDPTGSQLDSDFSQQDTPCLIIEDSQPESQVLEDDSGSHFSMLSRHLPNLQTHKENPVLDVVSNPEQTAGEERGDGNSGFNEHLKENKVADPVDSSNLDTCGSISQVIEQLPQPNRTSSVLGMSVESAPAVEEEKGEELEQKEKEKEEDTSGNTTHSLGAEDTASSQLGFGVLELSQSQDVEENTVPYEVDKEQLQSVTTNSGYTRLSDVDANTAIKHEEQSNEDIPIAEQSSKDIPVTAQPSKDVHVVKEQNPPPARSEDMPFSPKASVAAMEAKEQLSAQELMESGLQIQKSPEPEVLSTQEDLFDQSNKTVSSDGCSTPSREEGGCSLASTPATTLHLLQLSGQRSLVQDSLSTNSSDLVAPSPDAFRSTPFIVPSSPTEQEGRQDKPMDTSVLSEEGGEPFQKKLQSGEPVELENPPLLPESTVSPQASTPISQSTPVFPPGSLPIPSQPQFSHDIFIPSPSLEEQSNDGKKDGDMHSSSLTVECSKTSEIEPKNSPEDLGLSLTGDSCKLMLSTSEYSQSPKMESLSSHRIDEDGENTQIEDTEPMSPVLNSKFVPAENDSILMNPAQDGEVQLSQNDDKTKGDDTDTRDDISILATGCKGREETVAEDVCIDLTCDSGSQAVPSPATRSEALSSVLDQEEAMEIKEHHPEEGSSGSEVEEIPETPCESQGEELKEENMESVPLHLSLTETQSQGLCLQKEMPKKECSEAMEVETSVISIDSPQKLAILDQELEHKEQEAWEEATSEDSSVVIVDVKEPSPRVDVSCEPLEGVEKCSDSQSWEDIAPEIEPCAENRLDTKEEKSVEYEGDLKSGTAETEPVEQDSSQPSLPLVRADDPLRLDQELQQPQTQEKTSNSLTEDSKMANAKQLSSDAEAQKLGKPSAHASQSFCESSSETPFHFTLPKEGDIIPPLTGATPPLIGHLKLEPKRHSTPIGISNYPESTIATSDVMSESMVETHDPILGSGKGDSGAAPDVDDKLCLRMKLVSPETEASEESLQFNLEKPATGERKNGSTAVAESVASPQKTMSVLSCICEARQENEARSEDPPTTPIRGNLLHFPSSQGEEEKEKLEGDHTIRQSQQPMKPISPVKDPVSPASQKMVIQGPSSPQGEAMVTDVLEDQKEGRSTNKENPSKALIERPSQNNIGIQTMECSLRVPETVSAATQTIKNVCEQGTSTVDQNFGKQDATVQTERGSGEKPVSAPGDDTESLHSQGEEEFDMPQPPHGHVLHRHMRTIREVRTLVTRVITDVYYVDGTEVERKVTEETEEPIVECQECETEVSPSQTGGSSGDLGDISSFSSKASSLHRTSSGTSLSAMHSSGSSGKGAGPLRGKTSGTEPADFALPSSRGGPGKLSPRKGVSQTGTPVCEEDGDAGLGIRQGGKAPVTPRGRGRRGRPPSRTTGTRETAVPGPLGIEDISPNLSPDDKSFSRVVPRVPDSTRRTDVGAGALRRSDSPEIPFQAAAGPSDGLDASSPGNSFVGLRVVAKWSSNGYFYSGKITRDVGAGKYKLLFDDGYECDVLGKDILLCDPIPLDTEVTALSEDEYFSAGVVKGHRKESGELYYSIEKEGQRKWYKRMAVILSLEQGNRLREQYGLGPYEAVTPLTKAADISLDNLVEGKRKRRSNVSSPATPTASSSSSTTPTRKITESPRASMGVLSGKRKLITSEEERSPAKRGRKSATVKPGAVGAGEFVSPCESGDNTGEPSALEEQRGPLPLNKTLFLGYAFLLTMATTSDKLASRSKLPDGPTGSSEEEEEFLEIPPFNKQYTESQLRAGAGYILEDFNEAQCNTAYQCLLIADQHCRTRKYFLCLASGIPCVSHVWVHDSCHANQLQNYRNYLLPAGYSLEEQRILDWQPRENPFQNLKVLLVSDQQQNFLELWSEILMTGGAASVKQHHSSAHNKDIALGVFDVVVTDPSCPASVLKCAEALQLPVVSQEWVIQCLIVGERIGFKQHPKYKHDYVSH
# T1 sequence (Q12888 whole entry): as above
# T5 sequence (O95881 27-172): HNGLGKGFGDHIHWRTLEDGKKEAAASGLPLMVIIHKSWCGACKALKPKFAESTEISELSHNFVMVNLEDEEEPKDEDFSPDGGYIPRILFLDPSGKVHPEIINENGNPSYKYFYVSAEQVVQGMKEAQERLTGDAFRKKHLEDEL
# T4 sequence (P15170 whole entry): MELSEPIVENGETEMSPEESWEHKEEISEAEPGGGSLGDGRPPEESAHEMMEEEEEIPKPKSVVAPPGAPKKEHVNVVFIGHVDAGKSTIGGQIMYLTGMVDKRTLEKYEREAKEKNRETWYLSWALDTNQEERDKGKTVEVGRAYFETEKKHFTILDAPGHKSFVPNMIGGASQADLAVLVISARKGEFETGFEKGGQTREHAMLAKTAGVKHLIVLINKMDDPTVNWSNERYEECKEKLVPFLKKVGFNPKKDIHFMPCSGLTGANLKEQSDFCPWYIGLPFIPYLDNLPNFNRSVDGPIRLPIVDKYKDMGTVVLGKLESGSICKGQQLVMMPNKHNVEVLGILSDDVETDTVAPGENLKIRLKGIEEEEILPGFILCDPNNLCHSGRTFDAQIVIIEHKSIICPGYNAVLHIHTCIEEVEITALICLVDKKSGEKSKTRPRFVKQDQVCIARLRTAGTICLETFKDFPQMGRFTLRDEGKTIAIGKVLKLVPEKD
# T12 sequence (Q9Y238 whole entry): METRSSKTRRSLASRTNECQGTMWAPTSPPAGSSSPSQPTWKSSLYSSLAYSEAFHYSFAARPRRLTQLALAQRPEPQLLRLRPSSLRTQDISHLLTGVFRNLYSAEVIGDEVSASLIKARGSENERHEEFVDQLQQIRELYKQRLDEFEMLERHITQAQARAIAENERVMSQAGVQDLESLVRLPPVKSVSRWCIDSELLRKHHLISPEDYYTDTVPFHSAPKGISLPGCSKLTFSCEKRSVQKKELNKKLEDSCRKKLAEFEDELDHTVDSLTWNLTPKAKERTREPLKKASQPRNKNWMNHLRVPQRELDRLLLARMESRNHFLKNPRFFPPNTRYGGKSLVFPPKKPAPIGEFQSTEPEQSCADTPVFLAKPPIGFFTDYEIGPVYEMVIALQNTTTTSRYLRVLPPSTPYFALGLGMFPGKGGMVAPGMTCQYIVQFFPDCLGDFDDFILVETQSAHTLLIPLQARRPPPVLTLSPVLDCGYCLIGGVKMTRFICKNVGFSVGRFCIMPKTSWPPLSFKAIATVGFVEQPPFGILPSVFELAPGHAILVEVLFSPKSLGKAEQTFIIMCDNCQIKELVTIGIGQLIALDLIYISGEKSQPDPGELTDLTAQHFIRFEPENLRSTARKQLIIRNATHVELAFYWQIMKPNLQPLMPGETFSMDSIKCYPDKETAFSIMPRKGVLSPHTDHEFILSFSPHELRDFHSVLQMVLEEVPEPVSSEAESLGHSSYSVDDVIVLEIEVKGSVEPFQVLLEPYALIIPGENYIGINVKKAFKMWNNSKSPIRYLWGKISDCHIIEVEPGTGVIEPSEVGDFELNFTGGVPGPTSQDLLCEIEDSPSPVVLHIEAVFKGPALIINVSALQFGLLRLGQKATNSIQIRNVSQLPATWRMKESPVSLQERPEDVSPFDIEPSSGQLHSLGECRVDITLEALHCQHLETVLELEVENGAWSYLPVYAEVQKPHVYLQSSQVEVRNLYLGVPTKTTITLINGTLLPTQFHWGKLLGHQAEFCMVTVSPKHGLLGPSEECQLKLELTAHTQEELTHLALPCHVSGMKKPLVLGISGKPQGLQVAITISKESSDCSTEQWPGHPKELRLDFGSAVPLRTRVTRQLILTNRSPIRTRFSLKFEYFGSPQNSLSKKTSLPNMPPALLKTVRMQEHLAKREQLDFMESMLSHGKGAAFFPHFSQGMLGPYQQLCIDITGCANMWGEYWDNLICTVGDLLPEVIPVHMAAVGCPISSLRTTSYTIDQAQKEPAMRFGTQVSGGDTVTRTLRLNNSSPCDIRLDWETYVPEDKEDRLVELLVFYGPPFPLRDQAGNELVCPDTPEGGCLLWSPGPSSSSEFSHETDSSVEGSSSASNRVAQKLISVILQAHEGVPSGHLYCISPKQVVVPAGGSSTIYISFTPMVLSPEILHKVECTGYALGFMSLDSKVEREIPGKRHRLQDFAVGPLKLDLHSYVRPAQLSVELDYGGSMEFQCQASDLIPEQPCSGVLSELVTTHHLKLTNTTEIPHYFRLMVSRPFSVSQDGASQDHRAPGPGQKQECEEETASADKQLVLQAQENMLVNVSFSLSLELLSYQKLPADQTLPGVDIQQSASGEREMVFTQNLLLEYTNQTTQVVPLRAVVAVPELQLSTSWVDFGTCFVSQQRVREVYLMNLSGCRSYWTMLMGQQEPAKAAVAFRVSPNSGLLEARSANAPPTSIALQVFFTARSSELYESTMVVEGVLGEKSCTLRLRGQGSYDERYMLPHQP
# T3 sequence (P23528 whole entry): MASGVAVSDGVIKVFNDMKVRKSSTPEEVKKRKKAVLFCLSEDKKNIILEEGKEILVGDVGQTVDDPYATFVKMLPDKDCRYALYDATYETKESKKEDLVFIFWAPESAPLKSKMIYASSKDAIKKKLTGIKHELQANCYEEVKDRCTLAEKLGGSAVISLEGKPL
Substance,53BP1 recruitment to DSB sites (ionizing radiation focus formation) [1],"BRCA1 accumulation at DSB sites in G1 cells ([2]; U2OS cells, cell cycle stage by Cyclin A staining)","BRCA1 focus formation ([2]; transfected U2OS cells, 1 h post-irradiation)","Total peptides, TP53BP1 ([3]; Flag IP, 293T Flp-In/T-Rex extracts, LC-MS/MS, one column per replicate IP, listed as Flag-i53)","Selectivity of binding to cellular proteins (IP-MS conclusion) ([3]; three biological replicate IPs, interactors in two or more experiments)","Total peptides, CFL1 [4]","Total peptides, GSPT1 [5]","Total peptides, TXNDC12 [6]","Total peptides, RPL10 [7]","Total peptides, FMR1 [8]","Total peptides, RPL8 [9]","Total peptides, RPS29 [10]","Total peptides, MGA [11]","Total peptides, RERGL [12]","Total peptides, RAB34 [13]","Total peptides, DLEC1 [14]"
i53: UbvG08 with C-terminal di-glycine removed and I44A mutation; genetically encoded inhibitor of 53BP1,strongly suppressed 53BP1 recruitment to DSB sites,induced BRCA1 accumulation at DSB sites in G1 cells,did not impact,66 and 38 and 21,highly selective binder of 53BP1,6,3,,,,,,,,,
"i53-DM: 53BP1-binding deficient mutant of i53 (P69L, L70V)",,,,,,,,2,11,6,5,3,2,2,2,2
